Assay results published in US20220089698A1 (published 2022).

Experiments:
HIV gp120 CAAN = HIV gp120 CAAN (HIV); experiment: single-point ELISA; also: test concentration or dose not given here
HIV gp120 Bal = HIV gp120 Bal (HIV); experiment: single-point ELISA; also: test concentration or dose not given here

Binder	ELISA (A450) (HIV gp120 CAAN)	ELISA (A450) (HIV gp120 Bal)
1.12.17-1 (antibody, human IgG1, kappa, V domains shown) VH: QVQLLQSGAAVTKPGASVRVSCEASGYNIRDYFIHWVRQAPGQGLQWVGWINPKTGQPNNPRQFQGRVSLTRHASWDFDTFSFYMDLKALRSDDTAVYFCARQRSDYWDFDVWGSGTQVTVSS VL: DIQMTQSPSSLSASVGDTVTITCQANGYLNWYQQRRGKAPKLLIYDGSKLERGVPSRFSGRRWGQEYNLTINNLQPEDIATYFCQVYEFFGPGTRLDLKR	0.84 A450	0.9 A450
1.13.17-1 (antibody, human IgG1, kappa, V domains shown) VH: QVQLLQSGAAVTKPGASVRVSCEASGYNIRDYFMHWVRQAPGQGLQWVGWINPKTGQPNNPRQFQGRVSLTRHASWDFDTFSFYMDLKALRSDDTAVYFCARQRSDYWDFDVWGSGTQVTVSS VL: DIQMTQSPSSLSASVGDTVTITCQANGYLNWYQQRRGKAPKLLIYDGSKLERGVPSRFSGRRWGQEYNLTINNLQPEDIATYFCQVYEFFGPGTRLDLKR	0.78 A450	1.02 A450
1.14.17-1 (antibody, human IgG1, kappa, V domains shown) VH: QVQLLQSGAAVTKPGASVRVSCEASGYNIRDYFMHWVRQAPGQGLQWVGWINPKTGQPNNPRQFQGRVSLTRHASWDFDTFSAYMDLKALRSDDTAVYFCARQRSDYWDFDVWGSGTQVTVSS VL: DIQMTQSPSSLSASVGDTVTITCQANGYLNWYQQRRGKAPKLLIYDGSKLERGVPSRFSGRRWGQEYNLTINNLQPEDIATYFCQVYEFFGPGTRLDLKR	0.43 A450	0.89 A450
1.31.1-1 (antibody, human IgG1, kappa) heavy: QVQLVQSGAEVTKPGASVRVSCEASGYNIRDYFIHWWRQAPGQGLQWVGWINPKTGQPNNPRQFQGRVSLTRHASWDFDTFSFYMDLKALRSDDTATYFCARQRSDYWDFDVWGSGTQVTVSSASTKGPSVFPLAPSSKSTSGGTAALGCLVKDYFPEPVTVSWNSGALTSGVHTFPAVLQSSGLYSLSSVVTVPSSSLGTQTYICNVNHKPSNTKVDKKVEPKSCDKTHTCPPCPAPELLAGPDVFLFPPKPKDTLMISRTPEVTCVVVDVSHEDPEVKFNWYVDGVEVHNAKTKPREEQYNSTYRVVSVLTVLHQDWLNGKEYKCKVSNKALPLPEEKTISKAKGQPREPQVYTLPPSREEMTKNQVSLTCLVKGFYPSDIAVEWESNGQPENNYKTTPPVLDSDGSFFLYSKLTVDKSRWQQGNVFSCSVLHEALHSHYTQKSLSLSPGK light: DIQMTQSPSSLSASVGDTVTITCQANGYLNWYQQRRGKAPKLLIYDGSKLERGVPSRFSGRRWGQEYNLTINNLQPEDIATYFCQVYEFVVPGTRLDLKRTVAAPSVFIFPPSDEQLKSGTASVVCLLNNFYPREAKVQWKVDNALQSGNSQESVTEQDSKDSTYSLSSTLTLSKADYEKHKVYACEVTHQGLSSPVTKSFNRGEC	0.92 A450	0.82 A450
1.32.1-1 (antibody, human IgG1, kappa) heavy: QVQLVQSGAEVTKPGASVRVSCEASGYNIRDYFIHWWRQAPGQGLQWVGWINPKTGQPNNPRQFQGRVSLTRHASWDFDTFSFYMDLKALRSDDTAVYFCARQRTDYWDFDVWGSGTQVTVSSASTKGPSVFPLAPSSKSTSGGTAALGCLVKDYFPEPVTVSWNSGALTSGVHTFPAVLQSSGLYSLSSVVTVPSSSLGTQTYICNVNHKPSNTKVDKKVEPKSCDKTHTCPPCPAPELLAGPDVFLFPPKPKDTLMISRTPEVTCVVVDVSHEDPEVKFNWYVDGVEVHNAKTKPREEQYNSTYRVVSVLTVLHQDWLNGKEYKCKVSNKALPLPEEKTISKAKGQPREPQVYTLPPSREEMTKNQVSLTCLVKGFYPSDIAVEWESNGQPENNYKTTPPVLDSDGSFFLYSKLTVDKSRWQQGNVFSCSVLHEALHSHYTQKSLSLSPGK light: DIQMTQSPSSLSASVGDTVTITCQANGYLNWYQQRRGKAPKLLIYDGSKLERGVPSRFSGRRWGQEYNLTINNLQPEDIATYFCQVYEFVVPGTRLDLKRTVAAPSVFIFPPSDEQLKSGTASVVCLLNNFYPREAKVQWKVDNALQSGNSQESVTEQDSKDSTYSLSSTLTLSKADYEKHKVYACEVTHQGLSSPVTKSFNRGEC	0.83 A450	0.93 A450
1.33.1-1 (antibody, human IgG1, kappa) heavy: QVQLVQSGAEVKKPGASVRVSCKASGYNIRDYFIHWWRQAPGQGLQWVGWINPKTGQPNNPRQFQGRVTLTRHASWDFDTFSFYMDLKALRSDDTATYFCARQRSDYWDFDVWGSGTQVTVSSASTKGPSVFPLAPSSKSTSGGTAALGCLVKDYFPEPVTVSWNSGALTSGVHTFPAVLQSSGLYSLSSVVTVPSSSLGTQTYICNVNHKPSNTKVDKKVEPKSCDKTHTCPPCPAPELLAGPDVFLFPPKPKDTLMISRTPEVTCVVVDVSHEDPEVKFNWYVDGVEVHNAKTKPREEQYNSTYRVVSVLTVLHQDWLNGKEYKCKVSNKALPLPEEKTISKAKGQPREPQVYTLPPSREEMTKNQVSLTCLVKGFYPSDIAVEWESNGQPENNYKTTPPVLDSDGSFFLYSKLTVDKSRWQQGNVFSCSVLHEALHSHYTQKSLSLSPGK light: DIQMTQSPSSLSASVGDTVTITCQANGYLNWYQQRRGKAPKLLIYDGSKLERGVPSRFSGRRWGQEYNLTINNLQPEDIATYFCQVYEFVVPGTRLDLKRTVAAPSVFIFPPSDEQLKSGTASVVCLLNNFYPREAKVQWKVDNALQSGNSQESVTEQDSKDSTYSLSSTLTLSKADYEKHKVYACEVTHQGLSSPVTKSFNRGEC	0.98 A450	0.88 A450
1.36.1-1 (antibody, human IgG1, kappa) heavy: QVQLVQSGAEVKKPGASVRVSCKASGYNIRDYFMHWWRQAPGQGLQWVGWINPKTGQPNNPRQFQGRVTMTRHASWDFDTFSAYMDLSRLRSDDTATYFCARQRTDYWDFDVWGQGTMVTVSSASTKGPSVFPLAPSSKSTSGGTAALGCLVKDYFPEPVTVSWNSGALTSGVHTFPAVLQSSGLYSLSSVVTVPSSSLGTQTYICNVNHKPSNTKVDKKVEPKSCDKTHTCPPCPAPELLAGPDVFLFPPKPKDTLMISRTPEVTCVVVDVSHEDPEVKFNWYVDGVEVHNAKTKPREEQYNSTYRVVSVLTVLHQDWLNGKEYKCKVSNKALPLPEEKTISKAKGQPREPQVYTLPPSREEMTKNQVSLTCLVKGFYPSDIAVEWESNGQPENNYKTTPPVLDSDGSFFLYSKLTVDKSRWQQGNVFSCSVLHEALHSHYTQKSLSLSPGK light: DIQMTQSPSSLSASVGDTVTITCQANGYLNWYQQRRGKAPKLLIYDGSKLERGVPSRFSGRRWGQEYNLTINNLQPEDIATYFCQVYEFVVPGTRLDLKRTVAAPSVFIFPPSDEQLKSGTASVVCLLNNFYPREAKVQWKVDNALQSGNSQESVTEQDSKDSTYSLSSTLTLSKADYEKHKVYACEVTHQGLSSPVTKSFNRGEC	0.75 A450	1.13 A450
1.35.1-1 (antibody, human IgG1, kappa) heavy: QVQLVQSGAEVKKPGASVRVSCKASGYNIRDYFMHWWRQAPGQGLQWVGWINPKTGQPNNPRQFQGRVTMTRHASWDFDTFSFYMDLSRLRSDDTATYFCARQRTDYWDFDVWGQGTMVTVSSASTKGPSVFPLAPSSKSTSGGTAALGCLVKDYFPEPVTVSWNSGALTSGVHTFPAVLQSSGLYSLSSVVTVPSSSLGTQTYICNVNHKPSNTKVDKKVEPKSCDKTHTCPPCPAPELLAGPDVFLFPPKPKDTLMISRTPEVTCVVVDVSHEDPEVKFNWYVDGVEVHNAKTKPREEQYNSTYRVVSVLTVLHQDWLNGKEYKCKVSNKALPLPEEKTISKAKGQPREPQVYTLPPSREEMTKNQVSLTCLVKGFYPSDIAVEWESNGQPENNYKTTPPVLDSDGSFFLYSKLTVDKSRWQQGNVFSCSVLHEALHSHYTQKSLSLSPGK light: DIQMTQSPSSLSASVGDTVTITCQANGYLNWYQQRRGKAPKLLIYDGSKLERGVPSRFSGRRWGQEYNLTINNLQPEDIATYFCQVYEFVVPGTRLDLKRTVAAPSVFIFPPSDEQLKSGTASVVCLLNNFYPREAKVQWKVDNALQSGNSQESVTEQDSKDSTYSLSSTLTLSKADYEKHKVYACEVTHQGLSSPVTKSFNRGEC	0.87 A450	0.84 A450
1.1.31-1 (antibody, human IgG1, kappa) heavy: QVQLLQSGAAVTKPGASVRVSCEASGYNIRDYFIHWWRQAPGQGLQWVGWINPKTGQPNNPRQFQGRVSLTRHASWDFDTFSFYMDLKALRSDDTAVYFCARQRSDYWDFDVWGSGTQVTVSSASTKGPSVFPLAPSSKSTSGGTAALGCLVKDYFPEPVTVSWNSGALTSGVHTFPAVLQSSGLYSLSSVVTVPSSSLGTQTYICNVNHKPSNTKVDKKVEPKSCDKTHTCPPCPAPELLAGPDVFLFPPKPKDTLMISRTPEVTCVVVDVSHEDPEVKFNWYVDGVEVHNAKTKPREEQYNSTYRVVSVLTVLHQDWLNGKEYKCKVSNKALPLPEEKTISKAKGQPREPQVYTLPPSREEMTKNQVSLTCLVKGFYPSDIAVEWESNGQPENNYKTTPPVLDSDGSFFLYSKLTVDKSRWQQGNVFSCSVLHEALHSHYTQKSLSLSPGK light: DIQMTQSPSSLSASVGDTVTITCQANGYLNWYQQRRGKAPKLLIYDGSKLERGVPSRFSGRRWGQEYTLTISSLQPEDIATYFCQVYEFVVPGTNLDLKRTVAAPSVFIFPPSDEQLKSGTASVVCLLNNFYPREAKVQWKVDNALQSGNSQESVTEQDSKDSTYSLSSTLTLSKADYEKHKVYACEVTHQGLSSPVTKSFNRGEC	0.96 A450	0.87 A450
1.34.1-1 (antibody, human IgG1, kappa) heavy: QVQLVQSGAEVKKPGASVRVSCKASGYNIRDYFIHWWRQAPGQGLQWVGWINPKTGQPNNPRQFQGRVTLTRHASWDFDTFSFYMDLKALRSDDTAVYFCARQRTDYWDFDVWGSGTQVTVSSASTKGPSVFPLAPSSKSTSGGTAALGCLVKDYFPEPVTVSWNSGALTSGVHTFPAVLQSSGLYSLSSVVTVPSSSLGTQTYICNVNHKPSNTKVDKKVEPKSCDKTHTCPPCPAPELLAGPDVFLFPPKPKDTLMISRTPEVTCVVVDVSHEDPEVKFNWYVDGVEVHNAKTKPREEQYNSTYRVVSVLTVLHQDWLNGKEYKCKVSNKALPLPEEKTISKAKGQPREPQVYTLPPSREEMTKNQVSLTCLVKGFYPSDIAVEWESNGQPENNYKTTPPVLDSDGSFFLYSKLTVDKSRWQQGNVFSCSVLHEALHSHYTQKSLSLSPGK light: DIQMTQSPSSLSASVGDTVTITCQANGYLNWYQQRRGKAPKLLIYDGSKLERGVPSRFSGRRWGQEYNLTINNLQPEDIATYFCQVYEFVVPGTRLDLKRTVAAPSVFIFPPSDEQLKSGTASVVCLLNNFYPREAKVQWKVDNALQSGNSQESVTEQDSKDSTYSLSSTLTLSKADYEKHKVYACEVTHQGLSSPVTKSFNRGEC	0.9 A450	0.83 A450
